For assay [1], the target named is (His)6-tagged Pf-Ubc9 (Plasmodium falciparum). The experiment in a line: pull-down.
Assay [2] concerns the target Hs-Ubc9 (human E2 conjugating enzyme Ubc9), untagged (human) (UniProt P63279). The experiment in a line: ITC. A general note: Isothermal titration calorimetry measures the heat released or taken up as one component is titrated into another.
In assay [3] the target is Pf-Ubc9 (Plasmodium falciparum E2 conjugating enzyme), untagged (Plasmodium falciparum). Kind of assay: ITC.
For assay [4], the target named is (His)6-tagged Hs-Ubc9 (human) (UniProt P63279). The experiment in a line: pull-down.
The target in assay [5] is Hs-Ubc9 (human E2 conjugating enzyme Ubc9), untagged (human) (UniProt P63279).
Assay [6] deals with Pf-SUMO D90A mutant, untagged (ITC, SPR, NMR) (Plasmodium falciparum). The experiment in a line: SPR. (In general: Surface plasmon resonance follows binding to a sensor surface in real time, without labels.)

The text below walks through data of article doi:10.1101/2021.08.18.456755.

For orientation: Kd means the free concentration of one partner at which half of the binding sites on the other are occupied at equilibrium, for simple one-to-one binding. A low value points to higher affinity.

Take “Hs-SUMO1 as prepared for pull-down and SUMOylation assays (GST-tagged preparation) (from UniProt P63165 1-97) (natural protein)”: the relative binding affinity (quantified pull-down) in assay [1] was 12%.
For “Pf-SUMO (Plasmodium falciparum SUMO, mature form Pf-SUMO-GG), untagged (natural protein)”, the results for the Kd in assay [2] and in assay [3] were 27.4 µM and 4.05 µM, respectively.
“Pf-SUMO D68A mutant (pull-down preparation) (natural protein)” showed a reduction of binding against Pf-SUMO wild type (quantified pull-down) in assay [4] of 90%.
The same measure, in the same setting: as for “Pf-SUMO D68K mutant (pull-down preparation) (natural protein)”, the figure is 90%; as for “Pf-SUMO D90A mutant (pull-down preparation) (natural protein)”, 90%.
In assay [5], “Pf-SUMO D90A mutant, untagged (ITC, SPR, NMR) (natural protein)” came in with a fold change of the dissociation constant against the wild type of 4 fold. The Kd in assay [3] stood at 2.5 µM.
Take “Pf-SUMO D90K mutant (pull-down preparation) (natural protein)”: the reduction of binding against Pf-SUMO wild type (quantified pull-down) in assay [4] was 90%.
“Pf-SUMO wild type as prepared for pull-down and SUMOylation assays (GST-tagged preparation) (natural protein)”: the relative affinity (quantified pull-down) in assay [4] was 67%.
Substance “Pf-Ubc9 (Plasmodium falciparum E2 conjugating enzyme), untagged” returned a Kd in assay [6] of 3.02 µM.
